Results on 3 molecules are retold here after patent publication US20160039943A1 (TRANSLATIONAL SCIENCES, published 2016).

B2: native human α2-antiplasmin (other, UniProt P08697 40-491, looked up)
chain: NQEQVSPLTLLKLGNQEPGGQTALKSPPGVCSRDPTPEQTHRLARAMMAFTADLFSLVAQTSTCPNLILSPLSVALALSHLALGAQNHTLQRLQQVLHAGSGPCLPHLLSRLCQDLGPGAFRLAARMYLQKGFPIKEDFLEQSEQLFGAKPVSLTGKQEDDLANINQWVKEATEGKIQEFLSGLPEDTVLLLLNAIHFQGFWRNKFDPSLTQRDSFHLDEQFTVPVEMMQARTYPLRWFLLEQPEIQVAHFPFKNNMSFVVLVPTHFEWNVSQVLANLSWDTLHPPLVWERPTKVRLPKLYLKHQMDLVATLSQLGLQELFQAPDLRGISEQSLVVSGVQHQSTLELSEVGVEAAAATSIAMSRMSLSSFSVNRPFLFFIFEDTTGLPLFVGSVRNPNPSAPRELKEQQDSPGNKDFLQSLKGFPRGDKLFGPDLKLVPPMEEDYPQFGSPK
modifications: radioiodinated (125I) in the binding assays
notes: mature; Bought native protein; also called native human α2-AP; native α2-AP

Test [1] addresses B2. The test can be described thus: k1, rate constant of reversible complex formation, from continuous inhibition kinetics with S-2251. How it is done: (§1) Native α₂-AP (1.8 μM) was pre-incubated with or without of MAbs (49, 77, Dig-control; 1.8 μM or RWR 1.8 μM and 18 μM) for 60 min at 4° C. The fast inhibition of plasmin, micro-plasmin and trypsin was examined by a continuous method as described (Wiman, B. and Collen, D. On the kinetics of the reaction between human antiplasmin and plasmin. Eur J Biochem 1978; 84: 573-578). The serine protease (20 nM) was added to a cuvette containing S-2251 (500 μM) in 300 μl of TBS buffer, and the change in absorbance at 405 nm was recorded at 0.1-min intervals prior to and after the addition of 10 μl of α₂-AP (1.8 μM) or preformed α₂-AP/MAb complex. The final concentration of α₂-AP in the cuvette was 60 nM. The percentage of residual protease activity was calculated from the initial value (defined as 100%). The inhibition constant (i.e., k₁, the rate constant of reversible complex formation) was determined as described (Turner et al., 2002, J Biol. Chem. 277:33068-33074).

In test [2] the target is T1, human Lys-plasmin (human, UniProt P00747 97-810).
T1 construct: also called human plasmin
The description is as above. How it is done: as §1

In test [3] the target is T1, human Lys-plasmin. The test can be described thus: cell-based or functional assay.

Bounds are passed on as bounds.

B1: pork trypsin (enzyme, UniProt P00761 9-231, looked up)
chain: IVGGYTCAANSIPYQVSLNSGSHFCGGSLINSQWVVSAAHCYKSRIQVRLGEHNIDVLEGNEQFINAAKIITHPNFNGNTLDNDIMLIKLSSPATLNSRVATVSLPRSCAAAGTECLISGWGNTKSSGSSYPSLLQCLKAPVLSDSSCKSSYPGQITGNMICVGFLEGGKDSCQGDSGGPVVCNGQLQGIVSWGYGCAQKNKPGVYTKVCNYVNWIQQTIAAN
What is called kon is the second-order rate constant of association. High values mean fast association, low ones slow association. On to B1, for which the on-rate (kon) in test [1] came out at 476000 M⁻¹ s⁻¹.

The molecule B2 showed a kon with human Lys-plasmin [2] above 2.6e+06 M⁻¹ s⁻¹. Moreover, in the test with human Lys-plasmin [3], the “stoichiometry of inhibition (SI)” value came to 1.1.

B3: micro-plasmin (enzyme, human, UniProt P00747 562-810, looked up)
chain: APSFDCGKPQVEPKKCPGRVVGGCVAHPHSWPWQVSLRTRFGMHFCGGTLISPEWVLTAAHCLEKSPRPSSYKVILGAHQEVNLEPHVQEIEVSRLFLEPTRKDIALLKLSSPAVITDKVIPACLPSPNYVVADRTECFITGWGETQGTFGAGLLKEAQLPVIENKVCNRYEFLNGRVQSTELCAGHLAGGTDSCQGDSGGPLVCFEKDKYILQGVTSWGLGCARPNKPGVYVRVSRFVTWIEGVMRNN
notes: domain: micro-plasmin; Made as in Reed et al., 1999; also called human micro-plasmin
In turn, B3 registered an on-rate (kon) in test [1] of 33000 M⁻¹ s⁻¹.
